The results in this text go back to US11331368B2, “Angiotensin receptor agonists and uses thereof” (Monash University, priority 2017, dated 2022).

For one assay, the target named is T1, human AT2R (Homo sapiens, UniProt P50052).
T1 construct: expressed in transfected cells
T1 sequence (P50052 1-363): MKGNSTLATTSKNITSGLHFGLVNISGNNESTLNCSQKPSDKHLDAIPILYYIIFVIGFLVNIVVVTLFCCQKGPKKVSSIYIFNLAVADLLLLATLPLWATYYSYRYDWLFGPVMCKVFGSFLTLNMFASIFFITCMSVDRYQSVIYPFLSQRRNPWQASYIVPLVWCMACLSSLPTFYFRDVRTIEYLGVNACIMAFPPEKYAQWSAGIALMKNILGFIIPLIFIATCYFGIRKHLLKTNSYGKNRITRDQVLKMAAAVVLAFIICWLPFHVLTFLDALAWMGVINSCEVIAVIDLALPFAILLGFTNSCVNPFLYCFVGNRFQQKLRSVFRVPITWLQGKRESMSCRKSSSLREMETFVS
The experiment in a line: Competition radioligand binding (125I-Sar1-Ile8-AngII) in AT2R-transfected HEK-293 cells. The following applies: AT2R over AT1R, Table 3.

Assay [1] addresses T2, human Angiotensin II Receptor Type 2 (AT2R) (human, UniProt P50052 1-363).
T2 construct: whole, on cells; also endogenous on human cardiac fibroblasts (functional entries); also called AT2 receptor
T2 sequence (looked up): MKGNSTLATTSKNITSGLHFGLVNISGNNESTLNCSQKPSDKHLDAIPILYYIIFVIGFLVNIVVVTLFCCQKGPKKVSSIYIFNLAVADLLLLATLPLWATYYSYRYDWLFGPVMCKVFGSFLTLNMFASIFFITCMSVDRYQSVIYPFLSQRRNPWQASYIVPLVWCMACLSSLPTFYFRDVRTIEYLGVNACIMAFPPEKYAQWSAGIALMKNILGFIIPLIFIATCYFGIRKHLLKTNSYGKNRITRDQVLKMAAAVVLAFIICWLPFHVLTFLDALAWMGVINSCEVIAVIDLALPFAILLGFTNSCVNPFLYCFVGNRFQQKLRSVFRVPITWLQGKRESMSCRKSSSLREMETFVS
The experiment in a line: competition radioligand binding on HEK-293 cells with AT2R; competitor [125I]-Sar1Ile8Ang II.
Procedure: For each experiment, each ligand concentration was tested in duplicate or triplicate, and each experiment was repeated at least 3 separate times.

Square brackets hold non-standard residues; d marks the D form. Primed or numbered codes have the meaning given here. Ends that are not written are not given here. * marks the point of attachment. Cholyl = C[C@H](CCC(=O)*)[C@H]1CC[C@H]2[C@@H]3[C@H](O)C[C@@H]4C[C@H](O)CC[C@]4(C)[C@H]3C[C@H](O)[C@]12C; βPhe = beta-form phenylalanine; βArg = beta-form arginine; βTyr = beta-form tyrosine; βPro = beta-form proline; βVal″ = beta-form valine

Procedure for human AT2R: This will lead to the generation of IC50 values that determine the relative ability of test compounds to interact with both Angiotensin receptors.
Cells were grown to approximately 80% confluence before being re-plated into 48 well plates at 1×10^5 cells/well and grown for 48 hours at 37° C. for a whole cell competition binding assay. [125I]-Sar1Ile8Ang II at 50,000 cpm, incubated for 45 minutes at 37° C., in the absence or presence of unlabeled ligands, prepared in binding buffer (DMEM, 0.1% BSA), were used in the competition assays at concentrations ranging from 1 μM to 10 μM. For each experiment, each ligand concentration was tested in duplicate or triplicate, and each experiment was repeated at least 3 separate times. […] The ability of each ligand to inhibit specific binding of [125I]-Sar1Ile8Ang II was measured on a gamma counter with all counts corrected for NSB.

Regarding “β-Arg-Val-Tyr-Ile-His-Pro-Trp [βArg-Trp-8-Ang III]”, on human AT2R, the “Fold AT2R selectivity” value amounted to 1854 fold.

B1: Cholic Acid-βPro-Ang III (peptide)
peptide: Cholyl-RVYIH[βPro]F-OH
notes: synthetic peptide; also called Cholate-Arg-Val-Tyr-Ile-His-β-Pro-Phe
In general, IC50 refers to the concentration that gives 50% inhibition. Low readings indicate greater potency, high ones weaker potency. On to B1, for which, in assay [1], the IC50 was determined as 0.05 nM.

B2: βVal-Ala-8-Ang III (peptide)
peptide: R[βVal″]YIHPA-OH
notes: synthetic peptide; also called Arg-β-Val-Tyr-Ile-His-Pro-Ala
B2 displayed a concentration for half-maximal inhibition (IC50) in assay [1] of 8.1 nM.

B3: D-Arg-Ang III (peptide)
peptide: [dR]VYIHPF-OH
notes: synthetic peptide; also called D-Arg-Val-Tyr-Ile-His-Pro-Phe
Molecule B3 had a half-maximal inhibitory concentration (IC50) in assay [1] of 25 nM.

B4: βPhe-Ang III (peptide)
peptide: RVYIHP[βPhe]-OH
notes: synthetic peptide; also called Arg-Val-Tyr-Ile-His-Pro-β-Phe
In turn, B4 had an IC50 in assay [1] of 20.3 nM.

B5: Nic-βPro-Ang III (peptide)
peptide: nicotinamido-RVYIH[βPro]F-OH
notes: synthetic peptide; also called Nicotinamido-Arg-Val-Tyr-Ile-His-β-Pro-Phe
In assay [1], B5 came in with an IC50 of 0.12 nM.

B6: βArg-Ala-8-Ang II (peptide)
peptide: D[βArg]VYIHPA-OH
notes: synthetic peptide; also called Asp-β-Arg-Val-Tyr-Ile-His-Pro-Ala
Molecule B6 displayed a half-maximal inhibitory concentration (IC50) in assay [1] of 12.5 nM.

B7: βTyr-Ang III (peptide)
peptide: RV[βTyr]IHPF-OH
notes: synthetic peptide; also called Arg-Val-β-Tyr-Ile-His-Pro-Phe
As for B7, the concentration for half-maximal inhibition (IC50) in assay [1] is 1.82 nM.

B8: NAc-βPro-Trp-8-Ang III (peptide)
peptide: Ac-RVYIH[βPro]W-OH
notes: synthetic peptide; also called N-Ac-β-Pro^7-Trp^8-Ang III; N-Ac-Pro^7-Trp^8-Ang III
For the molecule B8, the IC50 in assay [1] is 0.34 nM.

B9: βTyr-Trp-8-Ang III (peptide)
peptide: RV[βTyr]IHPW-OH
notes: synthetic peptide; also called β-Tyr^4-Trp^8-Ang III; β-Tyro-Trp^8-Ang III
For the molecule B9, the half-maximal inhibitory concentration (IC50) in assay [1] stood at 0.384 nM.

B10: βArg-Ala-8-Ang III (peptide)
peptide: [βArg]VYIHPA-OH
notes: synthetic peptide; also called β-Arg-Val-Tyr-Ile-His-Pro-Ala
As for B10, the half-inhibitory concentration (IC50) in assay [1] came out at 6.5 nM.
